This test deals with T1, TFIIB (fission yeast (S. pombe), UniProt O13749 1-340).
T1 construct: transcription initiation factor TFIIB of fission yeast, recombinant; also called recombinant fission yeast TFIIB
T1 sequence (looked up): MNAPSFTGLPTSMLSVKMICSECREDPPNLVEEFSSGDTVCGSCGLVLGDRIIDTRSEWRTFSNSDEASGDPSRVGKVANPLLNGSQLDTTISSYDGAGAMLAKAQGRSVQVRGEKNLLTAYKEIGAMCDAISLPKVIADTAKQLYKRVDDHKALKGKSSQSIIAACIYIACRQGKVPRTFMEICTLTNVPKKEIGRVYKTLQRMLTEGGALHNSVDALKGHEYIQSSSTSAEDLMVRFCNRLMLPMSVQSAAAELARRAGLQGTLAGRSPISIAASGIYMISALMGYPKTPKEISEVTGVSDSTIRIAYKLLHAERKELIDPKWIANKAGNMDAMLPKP
Description: native gel or EMSA; purified factors incubated 5 min at 25 °C in 20 mM HEPES pH 7.9, 50 mM KCl, 5 mM MgCl2, 0.1 mM EDTA, 5% glycerol, 0.5% PEG 8000, 2 mM DTT, then 15 min at 30 °C with 32P-labelled nmt1 Inr DNA probe; 5% acrylamide gel at 4 °C; all complexes are formed on the DNA probe. To be noted: both partners purified.

B1: TBP (natural protein, fission yeast (S. pombe), UniProt P17871 1-231, looked up)
chain: MDFALPTTASQASAFMNNSSLTFPVLPNANNEATNETADSGDAEVSKNEGVSGIVPTLQNIVATVNLDCRLDLKTIALHARNAEYNPKRFAAVIMRIREPKSTALIFASGKMVVLGGKSEDDSKLASRKYARIIQKLGFNAKFTDFKIQNIVGSCDVKFPIRLEGLAYSHGTFSSYEPELFPGLIYRMVKPKVVLLIFVSGKIVLTGAKVREEIYQAFEAIYPVLSEFRKH
notes: also called fission yeast TBP
Regarding B1, the binding result is listed as “binds”.

For the origin of these results see paper PMC8871863, “Initiator-Directed Transcription: Fission Yeast Nmtl Initiator Directs Preinitiation Complex Formation and Transcriptional Initiation” (Genes, 2022).
